T1: murine B7-H3 protein (Sino Biological Inc. Beijing) (mouse, UniProt Q8VE98 29-244, limits assumed)
T1 construct: Bought protein coated on ELISA plates; also called mouse B7-H3 antigen; murine B7-H3 antigen
T1 sequence (looked up): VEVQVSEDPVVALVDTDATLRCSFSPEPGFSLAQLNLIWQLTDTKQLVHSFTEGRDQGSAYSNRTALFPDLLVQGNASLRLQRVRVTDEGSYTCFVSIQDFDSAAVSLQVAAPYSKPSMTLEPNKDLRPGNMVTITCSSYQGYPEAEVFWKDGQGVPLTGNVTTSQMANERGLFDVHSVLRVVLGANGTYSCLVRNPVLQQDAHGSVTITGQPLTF

T2: human B7-H3 on tumor cells (Hs578T, MDA-MB-436, MDA-MB-468, MDA-MB-231, MDA-MB-453, HT-29) (human, UniProt Q5ZPR3 29-534)
T2 construct: whole, on cells; also called target cells
T2 sequence (looked up): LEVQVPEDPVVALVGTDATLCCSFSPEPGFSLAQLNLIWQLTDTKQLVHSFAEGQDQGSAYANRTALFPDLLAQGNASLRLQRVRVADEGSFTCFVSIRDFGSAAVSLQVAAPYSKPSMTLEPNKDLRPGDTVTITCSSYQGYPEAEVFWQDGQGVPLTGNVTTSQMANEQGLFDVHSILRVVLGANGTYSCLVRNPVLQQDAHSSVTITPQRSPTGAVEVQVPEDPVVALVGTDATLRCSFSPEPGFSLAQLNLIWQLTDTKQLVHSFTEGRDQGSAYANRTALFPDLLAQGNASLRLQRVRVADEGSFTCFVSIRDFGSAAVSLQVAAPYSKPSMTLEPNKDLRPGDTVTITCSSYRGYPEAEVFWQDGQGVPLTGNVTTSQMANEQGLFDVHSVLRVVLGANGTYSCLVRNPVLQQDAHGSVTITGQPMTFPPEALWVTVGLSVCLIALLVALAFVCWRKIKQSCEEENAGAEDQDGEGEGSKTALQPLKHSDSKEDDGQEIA

T3: human B7-H3 (purchased from Acro Biosystems) (human, UniProt Q5ZPR3 29-461, limits assumed)
T3 construct: Bought protein coated on ELISA plates; also called human B7-H3 antigen; human B7-H3 molecules
T3 sequence (looked up): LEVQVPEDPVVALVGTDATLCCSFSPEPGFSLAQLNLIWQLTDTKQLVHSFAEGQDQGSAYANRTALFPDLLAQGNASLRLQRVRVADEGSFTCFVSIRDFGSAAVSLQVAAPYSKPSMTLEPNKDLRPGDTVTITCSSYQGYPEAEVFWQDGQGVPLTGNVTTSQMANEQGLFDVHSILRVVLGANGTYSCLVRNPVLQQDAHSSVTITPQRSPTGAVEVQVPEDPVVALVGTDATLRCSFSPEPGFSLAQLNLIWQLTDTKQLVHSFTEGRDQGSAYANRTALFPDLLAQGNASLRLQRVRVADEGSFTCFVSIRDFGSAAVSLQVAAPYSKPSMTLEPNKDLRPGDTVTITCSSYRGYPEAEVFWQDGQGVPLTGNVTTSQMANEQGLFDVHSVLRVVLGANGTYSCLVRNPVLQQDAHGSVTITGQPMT

T4: His-labeled human B7-H3 (human, UniProt Q5ZPR3 29-461)
T4 construct: Coupled to a Ni-NTA sensor in BLI; also called antigen B7-H3; not shown: His label
T4 sequence (looked up): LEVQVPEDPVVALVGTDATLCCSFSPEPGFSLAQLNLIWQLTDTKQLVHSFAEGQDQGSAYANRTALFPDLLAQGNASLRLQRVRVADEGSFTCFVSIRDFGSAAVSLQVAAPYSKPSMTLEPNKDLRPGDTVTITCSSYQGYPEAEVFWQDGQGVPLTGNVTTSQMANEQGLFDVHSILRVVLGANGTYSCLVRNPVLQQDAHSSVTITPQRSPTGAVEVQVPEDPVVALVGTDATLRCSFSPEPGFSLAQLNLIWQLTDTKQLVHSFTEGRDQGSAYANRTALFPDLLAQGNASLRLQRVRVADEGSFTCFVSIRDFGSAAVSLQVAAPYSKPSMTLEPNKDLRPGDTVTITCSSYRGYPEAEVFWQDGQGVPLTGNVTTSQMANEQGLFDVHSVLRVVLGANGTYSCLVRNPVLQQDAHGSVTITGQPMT

B1: murine monoclonal antibody mAb152 (antibody, V domains shown)
VH: QVQLQQPGAELVRPGASVKLSCKASGYTFTAYWMNWVKQRPDQGLEWIGRIDPYDSETRYNQNFRDKARLTVDKSSSTAYMQLSSLTSEDSAVFYCARGVRIFDYWGQGTTLTVSS
VL: DIQMTQSPASLAASVGETVTITCRTSENIDYTLAWYQQKPGKSPQLLIYNANTLEDGVPSRFSGSGSGTHFSLKINSMQPEDTATYFCKQAYDVPRTFGGGTKLEIK
B2: murine monoclonal antibody mAb272 (antibody, V domains shown)
VH: QVQLQQPGAELVRPGASVKLSCKASGYTFTAYWMNWVKQRPDQGLEWIGRIDPYDSETRYNQNFRDKARLTVDKSSSTAYMQLSSLTSEDSAVFYCARGVRIFDYWGQGTTLTVSS
VL: DIQMTQSPASLAASVGETVTITCRTSENIDYTLAWYQQKPGKSPQLLIYNANTLEDGVPSRFSGSGSGTLFSLKINNMQPEDTATYFCKQAYDVPRTFGGGTKLEIK

Columns and labels:
[1] = biological target: T1, murine B7-H3 protein (Sino Biological …); experiment: ELISA, plate coated with 0.1 µg/mL murine B7-H3, HRP-labeled antibody, OD 450/620 nm
Description: (§1) The cross-reactivity of the anti-B7-H3 murine monoclonal antibodies with mouse and Cynomolgus monkey B7-H3 antigens was detected in this example.
(§2) Specific experimental procedures are as follows: The plates were coated with 100 μL of 0.1 μg/mL Cynomolgus monkey B7-H3 and murine B7-H3 proteins (Sino Biological Inc. Beijing) at room temperature overnight. The coating solution was discarded, and the wells were blocked for 0.5 hours with skimmed milk dissolved in phosphate buffered saline (PBS) and washed with PBS containing 0.05% Tween-20. 50 μL of purified HRP-labeled B7-H3 monoclonal antibodies was added to each well and incubated at room temperature for 1 hour. The cells were washed five times with PBS containing 0.05% Tween-20, 100 μL of TMB was added to each well, and color development was performed at room temperature for 5 min. 50 μL of 2N H₂SO₄ was added to each well to stop the color development reaction. The values at 450 nm were measured by a microplate reader. The results were imported into Graph Prism to calculate EC₅₀ values.

[2] = biological target: T2, human B7-H3 on tumor cells (Hs578T, …); experiment: flow cytometry, MFI titration on MDA-MB-436 cells
Description: (§3) The collected cells were resuspended with 1% PBSB to adjust the cell density to 2×10⁶ cells/ml, placed in 96-well plates 100 μL (2×10⁵ cells) per well, and blocked for 0.5 hours at 4° C. The blocked cells were centrifuged to discard the supernatant, and a series of diluted antibodies mAb152 and mAb272 were added to the cells. The cells were incubated for 1 hour at 4° C., then centrifuged to discard the supernatant, and washed three times with a PBS solution with 1% BSA (PBSB). Diluted AF64-labeled goat anti-human IgG antibodies (Jackson, Cat. No. 109-605-088) were added to the cells, and the cells were incubated for 1 hour at 4° C. in the dark. The obtained cells were centrifuged to discard the supernatant and then washed twice with 1% PBSB, and cells in each well were resuspended with 100 μL of 1% paraformaldehyde (PF). The signal intensity was detected by flow cytometry. The analysis was performed with the mean fluorescence intensity (MFI) as the Y-axis and the antibody concentration as the X-axis through the software GraphPad Prism 7 to calculate the Kd values for the binding of the murine monoclonal antibodies to the tumor cells.

[3] = biological target: T2, human B7-H3 on tumor cells (Hs578T, …); experiment: flow cytometry, MFI titration on HT-29 cells
Description: as §3

[4] = biological target: T3, human B7-H3 (purchased from Acro …); experiment: ELISA, plate coated with 0.1 µg/mL human B7-H3, HRP goat anti-mouse IgG detection
Description: Plates were coated with 100 μL of 0.1 μg/mL human B7-H3 (purchased from Acro Biosystems) at room temperature overnight. The coating solution was discarded, and the wells were blocked for 0.5 hours with skimmed milk dissolved in phosphate buffered saline (PBS) and washed with PBS containing 0.05% Tween-20 (PBST). The murine antibodies mAb152 and mAb272 against human B7-H3 to be tested were then diluted to appropriate concentrations, added to plates, 50 μL per well, and incubated at room temperature for 1 hour. The wells were washed with 0.05% PBST, and then 50 μL of HRP-labeled goat anti-mouse IgG polyclonal antibodies (purchased from Jackson Laboratory) was added to each well as the detection antibody and incubated at 37° C. for 1 hour. The cells were washed three times with 0.05% PBST, TMB was added to the plates, 100 μL/well, and color development was performed at room temperature for 5 min. 0.2 M H₂SO₄ was added, 50 μL/well, to stop the color development reaction. The light absorbance values at 450 nm/620 nm were measured by a microplate reader. A graph was drawn by software GraphPad Prism 7 with the absorbance as the Y-axis and the antibody concentration as the X-axis.

[5] = biological target: T2, human B7-H3 on tumor cells (Hs578T, …); experiment: flow cytometry, MFI titration on Hs578T cells
Description: as §3

[6] = biological target: T2, human B7-H3 on tumor cells (Hs578T, …); experiment: flow cytometry, MFI titration on MDA-MB-468 cells
Description: as §3

[7] = biological target: T2, human B7-H3 on tumor cells (Hs578T, …); experiment: flow cytometry, MFI titration on MDA-MB-453 cells
Description: as §3

[8] = biological target: T5, Cynomolgus monkey B7-H3 protein (Sino Biological Inc. Beijing) (Cynomolgus monkey); experiment: ELISA, plate coated with 0.1 µg/mL Cynomolgus monkey B7-H3, HRP-labeled antibody, OD 450/620 nm
T5 construct: Bought protein coated on ELISA plates; also called monkey B7-H3 antigen
Description: as §1, §2

[9] = biological target: T2, human B7-H3 on tumor cells (Hs578T, …); experiment: flow cytometry, MFI titration on MDA-MB-231 cells
Description: as §3

His-labeled human B7-H3 = biological target: T4, His-labeled human B7-H3; experiment: BLI (ForteBio Octet), His-labeled human B7-H3 on Ni-NTA sensor, antibody 3.125-100 nM
Description: The binding affinity constants of the purified murine monoclonal antibodies to the antigen B7-H3 were determined by bio-layer interferometry (BLI) with a ForteBio Octet RED&QK system from PALL Corporation.

| Binder | binding result [1] | Kd [2] | Kd [3] | EC50 [4] | Kd [5] | Kd [6] | Kd [7] | EC50 (read off the curve) [8] | Kd [9] | Kd (His-labeled human B7-H3) | koff (His-labeled human B7-H3) | kon (His-labeled human B7-H3) |
| --- | --- | --- | --- | --- | --- | --- | --- | --- | --- | --- | --- | --- |
| B1 | no binding (tested: 10 µg/mL) | 5.05 nM | 1.25 nM | 6.69 ng/mL | 0.835 nM | 2.6 nM | 0.273 nM | ~6 ng/mL | 0.227 nM | 0.015 nM | 3.09e-06 s⁻¹ | 207000 M⁻¹ s⁻¹ |
| B2 | no binding (tested: 10 µg/mL) | 5.11 nM | 2.35 nM | 6.16 ng/mL | 1.2 nM | 3.24 nM | 0.239 nM | ~5 ng/mL | 0.204 nM | < 0.001 nM | < 1e-07 s⁻¹ | 220000 M⁻¹ s⁻¹ |

— US20240317862A1 (AMPSOURCE BIOPHARMA SHANGHAI, published 2024)
